Positions count from the first letter of the chain named.
B1: AB200-(2Vk8)_R2-CDR1-hs-v4 (antibody)
heavy: QVQLVQSGAEVKKPGSSVKVSCKASGGTFSSYAISWVRQAPGQGLEWMGATYRSQSDTFYNQKFKSRVTITADKSTSTAYMELSSLRSEDTAVYYCARGAVYHGYDVIDNWGQGTLVTVSSASTKGPSVFPLAPSSKSTSGGTAALGCLVKDYFPEPVTVSWNSGALTSGVHTFPAVLQSSGLYSLSSVVTVPSSSLGTQTYICNVNHKPSNTKVDKKVEPKSC
light: DIQMTQSPSSLSASVGDRVTITCRASQSISSYINWYQQKPGKAPKLLIYATSNLQIGVPSRFSGSGSGTDFTLTISSLQPEDFATYYCQQFRKLPWSFGQGTKLEIKRTVAAPSVFIFPPSDEQLKSGTASVVCLLNNFYPREAKVQWKVDNALQSGNSQESVTEQDSKDSTYSLSSTLTLSKADYEKHKVYACEVTHQGLSSPVTKSFNRGEC
B2: AB200-R1H32-R2Vk38 (antibody)
heavy: B1 heavy with S31N, A33W, I34M, S35H, Q55H, F59Y, V101I
light: B1 light with I56S, L94I, S97T
B3: AB200-R1H32-R2Vk40 (antibody)
heavy: B1 heavy with S31N, A33W, I34M, S35H, Q55H, F59Y, V101I
light: B1 light with L54I, I56S, F91Y, K93R, L94I, S97T
B4: AB200-R1H32-R2Vk42 (antibody)
heavy: B1 heavy with S31N, A33W, I34M, S35H, Q55H, F59Y, V101I
light: B1 light with L54I, I56S, F91Y, L94I
B5: AB200-R1H32-R2Vk39 (antibody)
heavy: B1 heavy with S31N, A33W, I34M, S35H, Q55H, F59Y, V101I
light: B1 light with L54I, I56S, F91Y, K93R
B6: AB200-R1H32-R2Vk37 (antibody)
heavy: B1 heavy with S31N, A33W, I34M, S35H, Q55H, F59Y, V101I
light: B1 light with I56S, F91Y, L94I
B7: AB200-R1H32-R2Vk43 (antibody)
heavy: B1 heavy with S31N, A33W, I34M, S35H, Q55H, F59Y, V101I
light: B1 light with L54I, I56S, L94I, S97T
B8: AB200-R1H32-R2Vk17 (antibody)
heavy: B1 heavy with S31N, A33W, I34M, S35H, Q55H, F59Y, V101I
light: B1 light with T51A, N53S, I56S, F91Y, L94I
B9: AB200-R1H32-R2Vk4 (antibody)
heavy: B1 heavy with S31N, A33W, I34M, S35H, Q55H, F59Y, V101I
light: B1 light with I33L, L54I, I56S
B10: AB200-R1H32-R2Vk41 (antibody)
heavy: B1 heavy with S31N, A33W, I34M, S35H, Q55H, F59Y, V101I
light: B1 light with L54I, I56S, K93R, S97T
B11: AB200-R1H32-R2Vk47 (antibody)
heavy: B1 heavy with S31N, A33W, I34M, S35H, Q55H, F59Y, V101I
light: B1 light with F91Y, L94I
B12: AB200-R1H32-R2Vk7 (antibody)
heavy: B1 heavy with S31N, A33W, I34M, S35H, Q55H, F59Y, V101I
light: B1 light with L54I, I56S
B13: AB200-R1H32-R2Vk27 (antibody)
heavy: B1 heavy with S31N, A33W, I34M, S35H, Q55H, F59Y, V101I
light: B1 light with I33L, L54I, I56S, F91Y, L94I
B14: AB200-R1H32-R2Vk2 (antibody)
heavy: B1 heavy with S31N, A33W, I34M, S35H, Q55H, F59Y, V101I
light: B1 light with T51A, N53S, I56S
B15: AB200-R1H32-R2Vk6 (antibody)
heavy: B1 heavy with S31N, A33W, I34M, S35H, Q55H, F59Y, V101I
light: B1 light with I56S
B16: AB200-R1H32-R2Vk28 (antibody)
heavy: B1 heavy with S31N, A33W, I34M, S35H, Q55H, F59Y, V101I
light: B1 light with I33L, L54I, I56S, L94I, S97T
B17: AB200-R1H32-R2Vk18 (antibody)
heavy: B1 heavy with S31N, A33W, I34M, S35H, Q55H, F59Y, V101I
light: B1 light with T51A, N53S, I56S, L94I, S97T
B18: AB200-R1H32-R2Vk8 (antibody)
heavy: B1 heavy with S31N, A33W, I34M, S35H, Q55H, F59Y, V101I
light: B1 light
B19: AB200-R1H26-R2Vk48 (antibody)
heavy: B1 heavy with T28S, S31N, A33W, I34M, S35H, S54I, Q55H, S66G, V101I, I108L
light: B1 light with L94I, S97T
B20: AB200-R1H26-R2Vk6 (antibody)
heavy: B1 heavy with T28S, S31N, A33W, I34M, S35H, S54I, Q55H, S66G, V101I, I108L
light: B1 light with I56S
B21: AB200-R1H26-R2Vk4 (antibody)
heavy: B1 heavy with T28S, S31N, A33W, I34M, S35H, S54I, Q55H, S66G, V101I, I108L
light: B1 light with I33L, L54I, I56S
B22: AB200-R1H26-R2Vk17 (antibody)
heavy: B1 heavy with T28S, S31N, A33W, I34M, S35H, S54I, Q55H, S66G, V101I, I108L
light: B1 light with T51A, N53S, I56S, F91Y, L94I
B23: AB200-R1H26-R2Vk7 (antibody)
heavy: B1 heavy with T28S, S31N, A33W, I34M, S35H, S54I, Q55H, S66G, V101I, I108L
light: B1 light with L54I, I56S
B24: AB200-R1H26-R2Vk8 (antibody)
heavy: B1 heavy with T28S, S31N, A33W, I34M, S35H, S54I, Q55H, S66G, V101I, I108L
light: B1 light

Assay: ThermoFluor thermostability (Tm)
Assay type: physicochemical
Conditions: Fab fragment; heavy chain clone paired with light chain AB200-(2Vk8)

Molecule	Tm
B1	76.495 °C

Same assay, conditions: Fab fragment; light chain clone paired with heavy chain AB200_R1_VH32

Molecule	Tm
B2	80.727 °C
B3	76.379 °C
B4	75.027 °C
B5	76.077 °C
B6	76.708 °C
B7	78.820 °C
B8	76.415 °C
B9	79.449 °C
B10	79.593 °C
B11	75.976 °C
B12	79.001 °C
B13	76.729 °C
B14	79.715 °C
B15	79.773 °C
B16	79.945 °C
B17	79.872 °C
B18	80.002 °C

Same assay, conditions: Light chain screening Round 2; Fab, paired with heavy chain AB200_R1_VH26

Molecule	Tm
B19	83.862 °C
B20	82.640 °C
B21	81.832 °C
B22	78.993 °C
B23	81.764 °C
B24	82.921 °C
